Assay results as given in article PMC9482650, “Quantitative fragmentomics allow affinity mapping of interactomes” (Nature Communications, 2022).
Each block holds one binder with its values, some of them ahead of it.

Columns and labels:
Assay in all cases: holdup assay
Parameters in all cases: key: below the threshold = too weak to quantify, mostly under pKd 3.1 to 4
[1] = target: TJP1_2, Q07157
[2] = target: T1, TX1BP3, O14907
T1 sequence (O14907 10-122, limits assumed, looked up): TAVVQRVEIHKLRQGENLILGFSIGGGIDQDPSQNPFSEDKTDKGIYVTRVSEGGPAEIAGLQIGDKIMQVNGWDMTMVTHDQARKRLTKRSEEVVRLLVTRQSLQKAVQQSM

[3] = target: T2, LNX2_2, Q8N448
T2 sequence (Q8N448 334-432, limits assumed, looked up): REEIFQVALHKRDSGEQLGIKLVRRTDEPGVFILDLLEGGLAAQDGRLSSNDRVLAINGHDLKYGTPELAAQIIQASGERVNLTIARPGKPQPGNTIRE

[4] = target: T3, GRIP1_5, Q9Y3R0
T3 sequence (Q9Y3R0 568-668, limits assumed, looked up): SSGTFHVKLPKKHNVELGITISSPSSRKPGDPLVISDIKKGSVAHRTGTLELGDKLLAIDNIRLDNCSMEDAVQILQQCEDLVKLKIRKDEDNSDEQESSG

[5] = target: LDB3, O75112
Chain of LDB3, O75112 (O75112 1-94): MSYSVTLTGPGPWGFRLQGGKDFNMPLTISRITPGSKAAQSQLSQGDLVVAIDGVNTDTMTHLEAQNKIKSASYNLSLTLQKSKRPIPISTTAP

[6] = target: T4, TIAM2, Q8IVF5
T4 sequence (Q8IVF5 885-986, limits assumed, looked up): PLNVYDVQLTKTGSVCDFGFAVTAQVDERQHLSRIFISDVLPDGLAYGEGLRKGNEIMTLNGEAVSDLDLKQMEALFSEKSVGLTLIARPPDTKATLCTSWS

[7] = target: PARD3_3, Q8TEW0
Chain of PARD3_3, Q8TEW0 (Q8TEW0 582-685): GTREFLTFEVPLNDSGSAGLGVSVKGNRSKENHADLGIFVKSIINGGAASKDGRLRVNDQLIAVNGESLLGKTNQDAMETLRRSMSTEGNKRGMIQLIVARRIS

[8] = target: MAGI3_2, Q5TCQ9
Chain of MAGI3_2, Q5TCQ9 (Q5TCQ9 398-503): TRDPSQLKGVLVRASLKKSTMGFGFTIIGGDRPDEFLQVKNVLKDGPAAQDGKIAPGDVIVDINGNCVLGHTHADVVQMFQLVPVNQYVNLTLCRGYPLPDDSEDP

[9] = target: MAGI2_3, Q86UL8
Chain of MAGI2_3, Q86UL8 (Q86UL8 600-682): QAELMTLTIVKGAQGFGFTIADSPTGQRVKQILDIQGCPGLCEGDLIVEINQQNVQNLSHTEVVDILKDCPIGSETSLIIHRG

[10] = target: T5, MPDZ_12, O75970
T5 sequence (O75970 1857-1958, limits assumed, looked up): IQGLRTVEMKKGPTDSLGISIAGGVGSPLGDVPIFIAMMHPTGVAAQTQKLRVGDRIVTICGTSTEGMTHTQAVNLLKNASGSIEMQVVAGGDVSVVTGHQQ

[11] = target: NOS1, P29475
Chain of NOS1, P29475 (P29475 9-101): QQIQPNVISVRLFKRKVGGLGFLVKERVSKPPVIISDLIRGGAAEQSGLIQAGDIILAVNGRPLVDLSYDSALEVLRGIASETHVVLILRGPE

[12] = target: MAGI2_5, Q86UL8
Chain of MAGI2_5, Q86UL8 (Q86UL8 915-1017): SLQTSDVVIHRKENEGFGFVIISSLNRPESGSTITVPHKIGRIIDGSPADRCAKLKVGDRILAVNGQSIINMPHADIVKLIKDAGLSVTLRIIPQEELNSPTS

[13] = target: GRID2IP_2, A4D2P6
Chain of GRID2IP_2, A4D2P6 (A4D2P6 272-370): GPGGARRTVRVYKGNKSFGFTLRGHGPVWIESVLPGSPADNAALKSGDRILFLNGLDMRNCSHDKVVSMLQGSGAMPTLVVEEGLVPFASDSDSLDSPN

[14] = target: T6, NHERF3_4, Q5T2W1
T6 sequence (Q5T2W1 373-468, limits assumed, looked up): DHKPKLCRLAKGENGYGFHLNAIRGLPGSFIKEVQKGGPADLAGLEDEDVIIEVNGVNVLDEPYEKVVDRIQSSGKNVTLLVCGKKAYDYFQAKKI

[15] = target: DLG4_2, P78352
Chain of DLG4_2, P78352 (P78352 155-259): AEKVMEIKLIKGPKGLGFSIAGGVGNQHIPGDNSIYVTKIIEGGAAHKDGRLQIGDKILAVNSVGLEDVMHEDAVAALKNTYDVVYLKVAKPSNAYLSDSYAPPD

[16] = target: IL16_1, Q14005
Chain of IL16_1, Q14005 (Q14005 210-306): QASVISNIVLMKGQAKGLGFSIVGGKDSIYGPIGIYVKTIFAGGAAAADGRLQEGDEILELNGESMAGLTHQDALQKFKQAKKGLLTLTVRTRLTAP

[17] = target: DLG5_1, Q8TDM6
Chain of DLG5_1, Q8TDM6 (Q8TDM6 617-713): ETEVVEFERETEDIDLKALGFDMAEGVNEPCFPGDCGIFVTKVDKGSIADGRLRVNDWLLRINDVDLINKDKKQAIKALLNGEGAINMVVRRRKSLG

[18] = target: FRMPD2_2, Q68DX3
Chain of FRMPD2_2, Q68DX3 (Q68DX3 944-1038): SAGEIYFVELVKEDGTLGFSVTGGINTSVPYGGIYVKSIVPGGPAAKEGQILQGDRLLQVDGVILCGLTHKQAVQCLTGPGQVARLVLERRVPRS

[19] = target: DLG4_3, P78352
Chain of DLG4_3, P78352 (P78352 306-403): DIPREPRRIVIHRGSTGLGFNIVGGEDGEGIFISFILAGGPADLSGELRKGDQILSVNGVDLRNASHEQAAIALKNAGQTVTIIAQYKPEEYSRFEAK

[20] = target: T7, SNTG2, Q9NY99
T7 sequence (Q9NY99 68-166, limits assumed, looked up): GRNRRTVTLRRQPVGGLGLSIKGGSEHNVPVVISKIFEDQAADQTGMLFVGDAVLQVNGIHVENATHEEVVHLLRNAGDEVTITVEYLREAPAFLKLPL

[21] = target: SCRIB_2, Q14160
Chain of SCRIB_2, Q14160 (Q14160 857-960): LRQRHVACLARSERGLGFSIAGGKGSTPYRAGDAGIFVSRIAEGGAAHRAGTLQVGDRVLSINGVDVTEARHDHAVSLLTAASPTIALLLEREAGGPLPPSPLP

[22] = target: GRID2IP_1, A4D2P6
Chain of GRID2IP_1, A4D2P6 (A4D2P6 1-87): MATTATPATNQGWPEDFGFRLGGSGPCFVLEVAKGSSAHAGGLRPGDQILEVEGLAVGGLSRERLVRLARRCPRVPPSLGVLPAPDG

[23] = target: MAGI2_2, Q86UL8
Chain of MAGI2_2, Q86UL8 (Q86UL8 410-522): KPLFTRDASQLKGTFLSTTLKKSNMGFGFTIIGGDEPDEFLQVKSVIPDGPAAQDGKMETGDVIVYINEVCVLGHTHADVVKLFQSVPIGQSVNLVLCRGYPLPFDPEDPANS

[24] = target: FRMPD2_1, Q68DX3
Chain of FRMPD2_1, Q68DX3 (Q68DX3 770-861): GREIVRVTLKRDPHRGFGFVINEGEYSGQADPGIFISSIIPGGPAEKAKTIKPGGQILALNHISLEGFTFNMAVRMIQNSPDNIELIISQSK

[25] = target: T8, PDZRN3_1, Q9UPQ7
T8 sequence (Q9UPQ7 244-349, limits assumed, looked up): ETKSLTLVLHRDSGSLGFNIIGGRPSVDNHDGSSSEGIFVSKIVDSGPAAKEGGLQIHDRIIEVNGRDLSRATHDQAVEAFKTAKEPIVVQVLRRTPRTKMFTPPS

[26] = target: T9, SNTG1, Q9NSN8
T9 sequence (Q9NSN8 52-150, limits assumed, looked up): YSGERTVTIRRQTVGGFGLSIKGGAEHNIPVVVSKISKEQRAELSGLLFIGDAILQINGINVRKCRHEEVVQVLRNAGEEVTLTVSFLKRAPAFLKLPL

[27] = target: SNX27, Q96L92
[28] = target: T10, SYNJ2BP, P57105
T10 sequence (P57105 8-110, limits assumed, looked up): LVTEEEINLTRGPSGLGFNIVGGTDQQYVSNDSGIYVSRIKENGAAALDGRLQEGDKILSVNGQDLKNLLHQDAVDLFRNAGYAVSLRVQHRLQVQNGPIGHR

[29] = plain residues with an end cap or a label only (N-terminal biotin on a linker: ttds)
[30] = plain residues with an end cap or a label only (N-terminal biotin on a linker: ado-ado)
[31] = plain residues with an end cap or a label only (N-terminal biotin on a linker: gsgsgs; C-terminal amide)

Chain of TJP1_2, Q07157 (Q07157 181-274): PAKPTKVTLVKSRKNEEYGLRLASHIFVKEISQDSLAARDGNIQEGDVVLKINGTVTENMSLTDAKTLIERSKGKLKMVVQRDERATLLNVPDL

Binder: HRTCYLVTQL [ASIC3, Q9UHC3]
pKd [1, 29]: below the threshold
pKd [2, 29]: 5.08
pKd [3, 29]: below the threshold
pKd [4, 29]: below the threshold
pKd [5, 29]: below the threshold
pKd [6, 29]: 3.3
pKd [7, 29]: 3.76
pKd [8, 29]: 4.3
pKd [9, 29]: 3.47
pKd [10, 29]: 3.34
pKd [11, 29]: 3.75
pKd [12, 29]: 4.63
pKd [13, 29]: 4.56
pKd [14, 29]: 4.69
pKd [15, 29]: 3.97
pKd [16, 29]: below the threshold
pKd [17, 29]: below the threshold
pKd [18, 29]: 3.76
pKd [19, 29]: 3.6
pKd [20, 29]: 3.75
pKd [21, 29]: 3.73
pKd [22, 29]: below the threshold
pKd [23, 29]: 4.14
pKd [24, 29]: 3.37
pKd [25, 29]: 4.08
pKd [26, 29]: 3.72
pKd [27, 29]: 5.11
pKd [28, 29]: 4.72

Binder: GGPKEEESPV [SLC16A1, P53985]
pKd [1, 29]: below the threshold
pKd [2, 29]: below the threshold
pKd [3, 29]: below the threshold
pKd [4, 29]: below the threshold
pKd [5, 29]: below the threshold
pKd [6, 29]: below the threshold
pKd [7, 29]: below the threshold
pKd [8, 29]: below the threshold
pKd [9, 29]: below the threshold
pKd [10, 29]: below the threshold
pKd [11, 29]: 3.64
pKd [12, 29]: 3.62
pKd [13, 29]: below the threshold
pKd [14, 29]: below the threshold
pKd [15, 29]: 3.5
pKd [16, 29]: 4.26
pKd [17, 29]: below the threshold
pKd [18, 29]: 4.01
pKd [19, 29]: below the threshold
pKd [20, 29]: below the threshold
pKd [21, 29]: below the threshold
pKd [22, 29]: below the threshold
pKd [23, 29]: below the threshold
pKd [24, 29]: below the threshold
pKd [25, 29]: below the threshold
pKd [26, 29]: 3.99
pKd [27, 29]: 5.27
pKd [28, 29]: 4.32

Second part, the binder after the results:

pKd [1, 30]: below the threshold
pKd [2, 30]: below the threshold
pKd [3, 30]: below the threshold
pKd [4, 30]: below the threshold
pKd [5, 30]: below the threshold
pKd [6, 30]: 4.07
pKd [7, 30]: 3.61
pKd [8, 30]: below the threshold
pKd [9, 30]: below the threshold
pKd [10, 30]: below the threshold
pKd [11, 30]: 3.56
pKd [12, 30]: 4.4
pKd [13, 30]: 4.46
pKd [14, 30]: 4.48
pKd [15, 30]: 4
pKd [16, 30]: below the threshold
pKd [17, 30]: below the threshold
pKd [18, 30]: below the threshold
pKd [19, 30]: below the threshold
pKd [20, 30]: below the threshold
pKd [21, 30]: 3.79
pKd [22, 30]: below the threshold
pKd [23, 30]: below the threshold
pKd [24, 30]: below the threshold
pKd [25, 30]: 4.15
pKd [26, 30]: 3.59
pKd [27, 30]: 4.74
pKd [28, 30]: 4.18
Binder: EEPEERHTEL [CES2, O00748]

pKd [1, 31]: below the threshold
pKd [2, 31]: 3.92
pKd [3, 31]: below the threshold
pKd [4, 31]: below the threshold
pKd [5, 31]: below the threshold
pKd [6, 31]: 3.97
pKd [7, 31]: below the threshold
pKd [8, 31]: below the threshold
pKd [9, 31]: 3.5
pKd [10, 31]: below the threshold
pKd [11, 31]: below the threshold
pKd [12, 31]: below the threshold
pKd [13, 31]: 3.89
pKd [14, 31]: below the threshold
pKd [15, 31]: below the threshold
pKd [16, 31]: below the threshold
pKd [17, 31]: below the threshold
pKd [18, 31]: below the threshold
pKd [19, 31]: below the threshold
pKd [20, 31]: below the threshold
pKd [21, 31]: below the threshold
pKd [22, 31]: below the threshold
pKd [23, 31]: below the threshold
pKd [24, 31]: below the threshold
pKd [25, 31]: below the threshold
pKd [26, 31]: below the threshold
pKd [27, 31]: below the threshold
pKd [28, 31]: below the threshold
Binder: ELIQDTSTSFSTTREW [ARAP3_int, Q8WWN8]

pKd [1, 30]: 4.43
pKd [2, 30]: 4.12
pKd [3, 30]: 5.03
pKd [4, 30]: below the threshold
pKd [5, 30]: below the threshold
pKd [6, 30]: below the threshold
pKd [7, 30]: 3.64
pKd [8, 30]: 3.55
pKd [9, 30]: 3.63
pKd [10, 30]: 3.55
pKd [11, 30]: 4.24
pKd [12, 30]: below the threshold
pKd [13, 30]: below the threshold
pKd [14, 30]: 3.81
pKd [15, 30]: 3.75
pKd [16, 30]: below the threshold
pKd [17, 30]: below the threshold
pKd [18, 30]: below the threshold
pKd [19, 30]: below the threshold
pKd [20, 30]: below the threshold
pKd [21, 30]: below the threshold
pKd [22, 30]: below the threshold
pKd [23, 30]: 3.51
pKd [24, 30]: 5.03
pKd [25, 30]: below the threshold
pKd [26, 30]: 3.57
pKd [27, 30]: 3.53
pKd [28, 30]: 3.7
Binder: LHLHGTGIQV [EPHA7, Q15375]
